These results are taken from publication PMC12143597, “The low endoribonuclease activity and lack of rNMP preference of human mitochondrial topoisomerase 1 protect against ribonucleotide-dependent deletions”.

For orientation: Kd means a measure of binding affinity in units of concentration.

Series [1] deals with T1, scTOP1 catalytically inactive variant (Saccharomyces cerevisiae) (UniProt P04786).
T1 sequence: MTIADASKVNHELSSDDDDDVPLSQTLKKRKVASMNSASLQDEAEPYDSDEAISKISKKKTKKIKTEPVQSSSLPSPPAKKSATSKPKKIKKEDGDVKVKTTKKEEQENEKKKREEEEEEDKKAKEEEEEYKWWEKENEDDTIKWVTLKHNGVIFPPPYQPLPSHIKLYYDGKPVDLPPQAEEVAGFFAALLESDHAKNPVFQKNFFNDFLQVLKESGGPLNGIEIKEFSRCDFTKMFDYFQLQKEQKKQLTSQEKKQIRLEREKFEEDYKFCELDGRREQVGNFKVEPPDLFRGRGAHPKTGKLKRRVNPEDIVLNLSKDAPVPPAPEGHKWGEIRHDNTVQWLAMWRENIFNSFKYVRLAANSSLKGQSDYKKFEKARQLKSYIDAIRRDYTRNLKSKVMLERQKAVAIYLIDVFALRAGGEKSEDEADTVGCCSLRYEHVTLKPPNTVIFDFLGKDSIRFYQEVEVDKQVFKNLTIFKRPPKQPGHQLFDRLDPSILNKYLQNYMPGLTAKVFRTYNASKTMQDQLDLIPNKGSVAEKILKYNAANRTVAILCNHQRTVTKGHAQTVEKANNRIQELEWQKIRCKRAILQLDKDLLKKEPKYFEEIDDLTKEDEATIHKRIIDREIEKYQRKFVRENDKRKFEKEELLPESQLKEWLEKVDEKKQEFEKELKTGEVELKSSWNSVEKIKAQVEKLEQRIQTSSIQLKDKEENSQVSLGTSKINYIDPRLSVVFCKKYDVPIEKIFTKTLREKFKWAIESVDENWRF
Kind of series: fluorescence anisotropy. To be noted: 20 mM Tris pH 8, 66 mM NaCl, 1 mM DTT, 2% glycerol, 0.5 nM DNA, 0-60 nM TOP1, 10 min at 37 C, errors are SEM of 3-5 experiments. For orientation: In fluorescence polarisation assays a small probe gives low polarisation when free and higher when bound to something large.

For series [2], the target named is hTOP1 catalytically inactive variant (Homo sapiens, UniProt P11387 1-765, Y723F). Nature of the series: fluorescence anisotropy; 20 mM Tris pH 8, 66 mM NaCl, 1 mM DTT, 2% glycerol, 0.5 nM DNA, 0-60 nM TOP1, 10 min at 37 C; errors are SEM of 3-5 experiments. To be noted: protein: recombinant; tags: N-terminal GST tag removed by 3C protease; label: 5'-FAM on strand 1; blunt.
Sequence of hTOP1 catalytically inactive variant (P11387 whole entry Y723F): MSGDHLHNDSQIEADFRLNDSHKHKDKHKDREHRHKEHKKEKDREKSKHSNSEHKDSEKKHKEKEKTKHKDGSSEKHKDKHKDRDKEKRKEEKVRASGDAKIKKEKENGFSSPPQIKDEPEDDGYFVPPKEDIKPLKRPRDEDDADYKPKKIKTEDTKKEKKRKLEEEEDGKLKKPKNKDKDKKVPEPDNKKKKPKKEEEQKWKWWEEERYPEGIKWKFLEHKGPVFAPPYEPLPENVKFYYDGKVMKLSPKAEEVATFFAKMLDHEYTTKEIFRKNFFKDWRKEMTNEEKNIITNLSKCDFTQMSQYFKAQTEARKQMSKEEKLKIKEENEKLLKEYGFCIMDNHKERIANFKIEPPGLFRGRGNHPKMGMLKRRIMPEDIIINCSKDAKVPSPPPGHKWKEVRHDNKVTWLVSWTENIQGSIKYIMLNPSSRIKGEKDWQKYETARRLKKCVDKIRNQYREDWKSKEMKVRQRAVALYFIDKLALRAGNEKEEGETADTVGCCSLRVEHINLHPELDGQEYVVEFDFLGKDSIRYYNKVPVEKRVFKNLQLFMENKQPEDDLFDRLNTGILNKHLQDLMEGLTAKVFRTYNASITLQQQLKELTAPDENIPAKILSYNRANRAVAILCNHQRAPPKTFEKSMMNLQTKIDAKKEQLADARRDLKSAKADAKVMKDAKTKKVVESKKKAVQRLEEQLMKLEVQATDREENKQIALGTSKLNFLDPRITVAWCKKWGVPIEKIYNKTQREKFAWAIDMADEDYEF

Series [3] concerns the target T2, hTOP1MT catalytically inactive (Y955F) (Homo sapiens, UniProt Q969P6 =DIKLIDTVDLE+51-601, Y559F;internal_change).
T2 sequence: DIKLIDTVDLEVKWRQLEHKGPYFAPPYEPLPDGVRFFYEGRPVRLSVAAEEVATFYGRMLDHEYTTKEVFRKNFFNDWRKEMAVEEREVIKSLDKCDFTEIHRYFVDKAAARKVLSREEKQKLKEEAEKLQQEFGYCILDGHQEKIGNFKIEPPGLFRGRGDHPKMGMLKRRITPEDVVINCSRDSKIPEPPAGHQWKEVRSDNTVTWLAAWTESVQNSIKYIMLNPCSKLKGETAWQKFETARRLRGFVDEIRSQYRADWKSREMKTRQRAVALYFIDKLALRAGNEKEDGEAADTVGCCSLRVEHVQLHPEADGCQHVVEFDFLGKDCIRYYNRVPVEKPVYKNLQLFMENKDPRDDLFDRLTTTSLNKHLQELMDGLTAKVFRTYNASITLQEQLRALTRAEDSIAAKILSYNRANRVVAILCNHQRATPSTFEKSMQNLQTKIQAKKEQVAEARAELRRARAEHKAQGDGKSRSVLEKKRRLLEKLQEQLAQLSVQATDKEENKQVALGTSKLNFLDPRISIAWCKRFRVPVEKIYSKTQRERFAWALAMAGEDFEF
The series is described as above. The settings on record: protein: recombinant; tags: GST tag removed by 3C protease; label: 5'-FAM on strand 1; blunt.

In series [1], “AGCGTTGAAGATATGTGGCAAAACCTTTGT (double strand) [Substrate A]” came in with an equilibrium dissociation constant (Kd) of 4.6 nM. Regarding “AGCGTTGAAGAUATGTGGCAAAACCTTTGT / ACAAAGGTTTTGCCACATATCTTCAACGCT [Substrate B (rU at cleavage site)]”, the dissociation constant (Kd) in series [1] (single ribonucleotide rU at position 12 of strand 1, all else DNA) amounted to 5.5 nM. In turn, “ACTCGTCACGAGAGAGATGCCACGGTATTTCAAA (double strand) [Substrate C]” displayed a Kd in series [1] of 6.6 nM.

In series [1] (single ribonucleotide rG at position 16 of strand 1, all else DNA), “ACTCGTCACGAGAGAGATGCCACGGTATTTCAAA (double strand) [Substrate D (rG upstream of cleavage site)]” registered a Kd of 6 nM.

B1: Substrate A (dsDNA)
DNA 1: AGCGTTGAAGATATGTGGCAAAACCTTTGT
DNA 2: ACAAAGGTTTTGCCACATATCTTCAACGCT
Regarding B1, the results for the Kd in series [2] and in series [3] were 0.97 ± 0.06 nM and 8.3 ± 0.59 nM, respectively.

B2: Substrate D (rG upstream of cleavage site) (dsDNA)
DNA 1: ACTCGTCACGAGAGAGATGCCACGGTATTTCAAA
DNA 2: TTTGAAATACCGTGGCATCTCTCTCGTGACGAGT
modifications: single ribonucleotide rG at position 16 of strand 1; all else DNA
As to B2, the dissociation constant Kd in series [2] was 1.2 ± 0.09 nM; in series [3] it was 4.6 ± 0.37 nM.

B3: Substrate C (dsDNA)
DNA 1: ACTCGTCACGAGAGAGATGCCACGGTATTTCAAA
DNA 2: TTTGAAATACCGTGGCATCTCTCTCGTGACGAGT
As to B3, the Kd in series [2] worked out at 1.8 ± 0.05 nM; in series [3] it was 4.7 ± 0.83 nM.
